The values that follow come from paper PMC5095350, “Engineered AAA+ proteases reveal principles of proteolysis at the mitochondrial inner membrane” (Nature Communications, 2016).

For data set [1], the target named is T1, hexYME1L (human) (UniProt Q96TA2).
T1 sequence: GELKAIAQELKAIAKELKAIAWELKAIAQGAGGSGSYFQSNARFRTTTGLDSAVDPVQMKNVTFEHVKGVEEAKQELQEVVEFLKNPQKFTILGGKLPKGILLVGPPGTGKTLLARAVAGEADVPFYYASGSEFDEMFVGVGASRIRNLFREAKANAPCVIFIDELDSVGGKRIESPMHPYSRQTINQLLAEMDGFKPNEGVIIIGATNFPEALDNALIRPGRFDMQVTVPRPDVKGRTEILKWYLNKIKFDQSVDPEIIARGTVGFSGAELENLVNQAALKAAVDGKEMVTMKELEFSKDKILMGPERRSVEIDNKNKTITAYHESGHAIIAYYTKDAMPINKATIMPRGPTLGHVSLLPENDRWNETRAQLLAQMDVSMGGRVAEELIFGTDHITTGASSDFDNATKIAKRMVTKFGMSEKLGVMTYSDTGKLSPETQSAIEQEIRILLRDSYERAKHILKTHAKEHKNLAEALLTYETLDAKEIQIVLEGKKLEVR

Data set [2] deals with T1, hexYME1L (human). The source holds these as a separate data set.
Data set [3] concerns the molecule itself. Nature of the data set: SEC; analytical SEC, Superose 6 Increase 10/300 GL; 1 mg of protein in 200 μl; 50 mM Tris-HCl (pH 8.0), 100 mM NaCl, 0.5 mM TCEP; hexYME1L also with 5 mM EDTA or with ATPγS and MgCl2 (no change in migration). On the technique in general: SEC sorts molecules by how far they enter the pores of the column.
Data set [4] has as its target T1, hexYME1L (human). This is another data set of the same source.
Substrate in data set [5]: Nc1ncnc2c1ncn2[C@@H]1O[C@H](COP(=O)(O)OP(=O)(O)OP(=O)(O)O)[C@@H](O)[C@H]1O
Nature of the data set: purified protein. Particulars: Hill form of Michaelis-Menten equation, MgCl2 5 mM, pH 8.0, 37 °C, no protein substrate.

As for cp7-^SFGFP-ssrA, the KM of ATP-dependent degradation by hexYME1L (1 μM), loss of GFP fluorescence, 37 °C in data set [1] amounted to 12 µM.

On to cp7-^SFGFP-sul20C, for which, in data set [1], the KM of ATP-dependent degradation by hexYME1L (1 μM), loss of GFP fluorescence, 37 °C is 15.2 µM.

Turning to “carboxymethylated I27 domain of human titin (domain or fragment)”, in data set [2], the stimulation of the ATPase rate of hexYME1L (0.25 μM) by 20 μM substrate (not significant) stood at 14%.

With “I27 domain of human titin (domain or fragment)”, the stimulation of the ATPase rate of hexYME1L (0.25 μM) by 20 μM substrate (not significant) in data set [2] was 6%.

B1: hexYME1L (enzyme, human)
chain: T1 sequence
notes: cc-hex, de novo designed peptide that forms a hexameric coiled coil; replaces the N-terminal domain and transmembrane span of YME1L; 10-residue linker between cc-hex and YME1L-AP; human YME1L isoform 1, AAA+ ATPase domain and M41 protease domain, residues 317-773; also called hexYME1L-AP; hexameric YME1L; source: E. coli BL21 (DE3), purified (glutathione agarose, TEV cleavage, Ni-NTA, SEC); not …
In the case of B1, in data set [3], the “stoichiometry N” value was around 6.

B2: β-casein (natural protein)
chain: RELEELNVPGEIVESLSSSEESITRINKKIEKFQSEEQQQTEDELQDKIHPFAQTQSLVYPFPGPIPNSLPQNIPPLTQTPVVVPPFLQPEVMGVSKVKEAMAPKHKEMPFPKYPVEPFTESQSLTLTDVENLHLPLPLLQSWMHQPHQPLPPTVMFPPQSVLSLSQSKVLPVPQKAVPYPQRDMPIQAFLLYQEPVLGPVRGPFPIIV
B2 had an initial rate of ATP-dependent degradation of β-casein (20 μM) by hexYME1L (1 μM), SDS-PAGE (β-casein molecules min^−1 enz6^−1) in data set [4] of 0.49.

B3: hexYME1L (Homo sapiens) (protein)
chain: RFRTTTGLDSAVDPVQMKNVTFEHVKGVEEAKQELQEVVEFLKNPQKFTILGGKLPKGILLVGPPGTGKTLLARAVAGEADVPFYYASGSEFDEMFVGVGASRIRNLFREAKANAPCVIFIDELDSVGGKRIESPMHPYSRQTINQLLAEMDGFKPNEGVIIIGATNFPEALDNALIRPGRFDMQVTVPRPDVKGRTEILKWYLNKIKFDQSVDPEIIARGTVGFSGAELENLVNQAALKAAVDGKEMVTMKELEFSKDKILMGPERRSVEIDNKNKTITAYHESGHAIIAYYTKDAMPINKATIMPRGPTLGHVSLLPENDRWNETRAQLLAQMDVSMGGRVAEELIFGTDHITTGASSDFDNATKIAKRMVTKFGMSEKLGVMTYSDTGKLSPETQSAIEQEIRILLRDSYERAKHILKTHAKEHKNLAEALLTYETLDAKEIQIVLEGKKLEVR
B3: the K0.5 in data set [5] turned out to be 1.4 mM.

Broadly, the stoichiometry N is the number of molecules, sites or subunits per partner or assembly.
